Key:
[1] = biological target: HA-tagged intracellular part of Smβ-Int1 (Smβ-Int1 C-term) (S. mansoni)
[2] = biological target: HA-tagged intracellular part of Smβ-Int1 (Smβ-Int1 C-term) (S. mansoni); remark: listed apart in the source

## V5-tagged SmVKR1 (wildtype venus kinase receptor 1 of S. mansoni)
[1]
  GVBD (%) of Xenopus oocytes without L-Arg; Smβ-Int1, SmILK, SmPINCH, SmNck2 and SmVKR1 co-expressed (Exp 1): 90%
  GVBD (%) without L-Arg; as Exp 1 with SmILKΔAnk1 in place of SmILK (Exp 2): 0%
  GVBD (%) without L-Arg; as Exp 1 with SmNck2ΔSH3 in place of SmNck2 (Exp 5): 10%
  GVBD (%) without L-Arg; as Exp 1 with SmPINCHΔLIM1 in place of SmPINCH (Exp 4): 0%
  GVBD (%) without L-Arg; as Exp 1 with SmPINCHΔLIM4 in place of SmPINCH (Exp 3): 0%
  GVBD (%) without L-Arg; as Exp 1 with the ILK inhibitor QLT-0267 (1 μM) (Exp 7): 0%
[2]
  GVBD (%) of Xenopus oocytes without L-Arg; Smβ-Int1, SmILK and SmVKR1 co-expressed, no SmPINCH (Inj 10): 0%
  GVBD (%) of Xenopus oocytes without L-Arg; Smβ-Int1, SmILK, SmPINCH and SmVKR1 co-expressed (Inj 11): 80%
  GVBD (%) of Xenopus oocytes without L-Arg; Smβ-Int1, SmILK, SmPINCH, SmNck2 and SmVKR1 co-expressed, with the ILK inhibitor QLT-0267 (1 μM) (Inj 13): 0%
  GVBD (%) of Xenopus oocytes without L-Arg; Smβ-Int1, SmILK, SmPINCH, SmNck2ΔSH3 and SmVKR1 co-expressed (Inj 15): 10%
  GVBD (%) of Xenopus oocytes without L-Arg; Smβ-Int1, SmILK, SmPINCHΔLIM4 in place of SmPINCH and SmVKR1 co-expressed (Inj 14): 0%
  GVBD (%) of Xenopus oocytes without L-Arg; Smβ-Int1, SmILKΔAnk1 in place of SmILK, SmPINCH and SmVKR1 co-expressed (Inj 12): 0%
  GVBD (%) of Xenopus oocytes without L-Arg; Smβ-Int1, SmPINCH and SmVKR1 co-expressed, no SmILK (Inj 9): 0%
